Values quoted from earlier work as cited in paper PMC4319847 (PLoS ONE, 2015).

Test system: Yeast importin-α
Conditions: in the crystal (1BK6) and in solution by DLS; ref [13]
Description: The open homodimerization probably attributes to H119 at the top of the loop; this loop corresponds to the K ...

B1: Yeast importin-α: Yeast importin-α (1BK6), first crystal structure of an importin-α shown to dimerize (protein, UniProt Q02821 1-542, looked up)
Importin subunit alpha: MDNGTDSSTSKFVPEYRRTNFKNKGRFSADELRRRRDTQQVELRKAKRDEALAKRRNFIPPTDGADSDEEDESSVSADQQFYSQLQQELPQMTQQLNSDDMQEQLSATVKFRQILSREHRPPIDVVIQAGVVPRLVEFMRENQPEMLQLEAAWALTNIASGTSAQTKVVVDADAVPLFIQLLYTGSVEVKEQAIWALGNVAGDSTDYRDYVLQCNAMEPILGLFNSNKPSLIRTATWTLSNLCRGKKPQPDWSVVSQALPTLAKLIYSMDTETLVDACWAISYLSDGPQEAIQAVIDVRIPKRLVELLSHESTLVQTPALRAVGNIVTGNDLQTQVVINAGVLPALRLLLSSPKENIKKEACWTISNITAGNTEQIQAVIDANLIPPLVKLLEVAEYKTKKEACWAISNASSGGLQRPDIIRYLVSQGCIKPLCDLLEIADNRIIEVTLDALENILKMGEADKEARGLNINENADFIEKAGGMEKIFNCQQNENDKIYEKAYKIIETYFGEEEDAVDETMAPQNAGNTFGFGSNVNQQFNFN
dimerization: dimerize not only in the crystal but also in solution
